Measured values: patent publication US20170334995A1 (Boehringer Ingelheim, published 2017)

T1: Human LAG3 ECD-Fc (human, UniProt P18627 23-450)
T1 construct: extracellular domain; 23-450 is stated only for the immunogen; also called recombinant human LAG3 extracellular domain fused to human Fc; hLAG3-hlgFc; not shown: Fc
T1 sequence (looked up): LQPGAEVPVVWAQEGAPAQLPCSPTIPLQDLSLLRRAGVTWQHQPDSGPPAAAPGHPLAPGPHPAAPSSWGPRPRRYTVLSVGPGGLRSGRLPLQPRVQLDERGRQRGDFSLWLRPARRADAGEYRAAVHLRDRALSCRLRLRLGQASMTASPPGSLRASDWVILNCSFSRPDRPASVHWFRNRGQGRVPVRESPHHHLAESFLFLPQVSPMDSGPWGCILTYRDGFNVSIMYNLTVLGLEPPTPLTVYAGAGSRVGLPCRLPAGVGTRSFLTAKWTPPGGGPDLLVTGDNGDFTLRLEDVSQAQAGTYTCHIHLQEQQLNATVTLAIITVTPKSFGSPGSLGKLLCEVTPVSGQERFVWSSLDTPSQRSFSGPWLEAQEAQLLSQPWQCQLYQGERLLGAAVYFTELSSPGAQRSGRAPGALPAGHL

T2: human LAG3 (ECD) (human, UniProt P18627 23-450)
T2 construct: range 23-450; the screening reagent is called only 'human LAG3 (ECD)'; also called human LAG3 ECD protein
T2 sequence (looked up): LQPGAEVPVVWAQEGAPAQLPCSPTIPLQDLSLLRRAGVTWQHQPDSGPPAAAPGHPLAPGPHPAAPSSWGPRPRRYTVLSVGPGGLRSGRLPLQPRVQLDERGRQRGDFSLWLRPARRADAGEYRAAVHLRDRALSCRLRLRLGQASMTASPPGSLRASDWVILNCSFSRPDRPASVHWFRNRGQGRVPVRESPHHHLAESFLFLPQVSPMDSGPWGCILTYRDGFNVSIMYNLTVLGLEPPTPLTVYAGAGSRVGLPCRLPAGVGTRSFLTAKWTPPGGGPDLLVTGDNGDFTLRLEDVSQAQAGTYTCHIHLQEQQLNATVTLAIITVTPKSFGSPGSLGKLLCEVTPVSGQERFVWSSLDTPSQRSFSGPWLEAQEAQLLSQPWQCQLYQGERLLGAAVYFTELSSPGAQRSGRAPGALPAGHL


Experiments:
Human LAG3 ECD-Fc [1] = biological target: T1, Human LAG3 ECD-Fc; test: SPR, antibody captured on Protein A/G, LAG3 ECD-Fc as analyte, 1:1 Langmuir fit
Human LAG3 ECD-Fc [2] = biological target: T1, Human LAG3 ECD-Fc; test: blocking assay by FACS: LAG3 ECD-Fc pre-incubated with the antibody, then binding to MHC II on Raji cells detected with PE anti-human IgG, % inhibition against antibody concentration
human LAG3 (ECD) = biological target: T2, human LAG3 (ECD); test: hybridoma screening
[3] = biological target: T3, human PD1 expressed on the surface of CHO cells (human, UniProt Q15116 25-288); test: ligand blocking on PD1-expressing CHO cells, competitor biotin-PD-L1
T3 construct: whole, on cells; also called PD1 expressing CHO cells
T3 sequence (Q15116 25-288): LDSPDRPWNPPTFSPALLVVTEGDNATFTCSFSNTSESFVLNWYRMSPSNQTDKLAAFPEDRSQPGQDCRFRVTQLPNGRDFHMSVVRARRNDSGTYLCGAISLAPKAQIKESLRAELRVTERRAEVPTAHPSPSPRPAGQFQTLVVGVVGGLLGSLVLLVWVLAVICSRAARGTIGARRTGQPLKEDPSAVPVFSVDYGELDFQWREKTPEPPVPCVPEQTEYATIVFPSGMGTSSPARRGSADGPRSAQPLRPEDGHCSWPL
Protocol: (§1) The mixture was incubated for 1 hour at 37 degrees celsius. […] Percentage inhibition values were calculated in Excel and curve fitting was done with GraphPad Prism. Data points of the curve are mean values of triplicate measurements.

[4] = biological target: T3, human PD1 expressed on the surface of …; test: blocking assay on cells: biotin-labelled human PD-L1 binding to PD1-expressing CHO cells, Europium-streptavidin fluorescence, % inhibition against antibody concentration [A]
Protocol: as §1

[5] = biological target: T3, human PD1 expressed on the surface of …; test: blocking assay on cells: biotin-labelled human PD-L2 binding to PD1-expressing CHO cells, Europium-streptavidin fluorescence, % inhibition against antibody concentration [D]
Protocol: as §1

human PD1 ECD = biological target: T4, human PD1 ECD (human, UniProt Q15116 21-170); test: SPR (ProteOn XPR36), antibody captured on Protein A/G, PD1 ECD as analyte, 1:1 Langmuir fit
T4 construct: range 21-170; also called recombinant monomeric human PD1; recombinant human PD1
T4 sequence (Q15116 21-170 limits assumed, form in doubt): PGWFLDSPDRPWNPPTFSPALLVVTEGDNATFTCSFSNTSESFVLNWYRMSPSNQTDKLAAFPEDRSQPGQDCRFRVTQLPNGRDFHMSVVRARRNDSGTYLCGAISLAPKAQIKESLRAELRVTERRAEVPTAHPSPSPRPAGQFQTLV
Protocol: Binding affinities to recombinant monomeric human PD1 were measured by SPR using a ProteOn XPR36 instrument. […] Human PD1 ECD was injected over the captured antibodies for 600 sec at a flowrate of 30 ul/min and a dissociation for 1200 sec.

[6] = biological target: T3, human PD1 expressed on the surface of …; test: ligand blocking on PD1-expressing CHO cells, competitor biotin-PD-L2
Protocol: as §1

[7] = biological target: T3, human PD1 expressed on the surface of …; test: blocking assay on cells: biotin-labelled human PD-L1 binding to PD1-expressing CHO cells, Europium-streptavidin fluorescence, % inhibition against antibody concentration [B]
Protocol: as §1

[8] = biological target: T3, human PD1 expressed on the surface of …; test: blocking assay on cells: biotin-labelled human PD-L2 binding to PD1-expressing CHO cells, Europium-streptavidin fluorescence, % inhibition against antibody concentration [E]
Protocol: as §1

Kd (Human LAG3 ECD-Fc [1]) [nM] | IC50 (read off the curve) (Human LAG3 ECD-Fc [2]) [nM] | IC90 [3] [nM] | Kd (human PD1 ECD) [nM] | IC90 [6] [nM] | Binder | further results
0.1 | – | – | – | – | LAG3-4 (antibody, human IgG4 S228P, kappa, V domains shown, Humanized derivative of murine 496G6, human IgG4 (Pro) format, kappa; also called anti-LAG3 antibody LAG3-4) VH: QVTLVESGGGVVQPGRSLRLSCAFSGFSLSTSDMGVGWIRQAPGKGLEWVAHIWWDDVKRYNPALKSRFTISRDNSKNTLYLQMNSLRAEDTATYFCARIEDYGVSYYFDYWGQGTTVTVSS VL: DIVMTQSPSFLSASVGDRVTITCKASQDVSTAVAWYQQKPGKAPKLLIYSASYRYTGVPDRFSGSGSGTDFTLTISSLQPEDFATYYCQQHYSIPLTFGQGTKLEIKR | –
0.09 | ~0.7 | – | – | – | LAG3-2 (antibody, human IgG4 S228P, kappa, V domains shown, Humanized derivative of murine 496G6, human IgG4 (Pro) format, kappa; also called anti-LAG3 antibody LAG3-2) VH: QVTLKESGPTLVKPTQTLTLTCSFSGFSLSTSDMGVGWIRQPPGKALEWLAHIWWDDVKRYNPALKSRLTITKDTSKNQVVLTMTNMDPVDTATYFCARIEDYGVSYYFDYWGQGTTVTVSS VL: DIQMTQSPSFLSASVGDRVTFTCKASQDVSTAVAWYQQKPGKAPKLLIYSASYRYTGVPDRFSGSGSGTDFTLTISSLQPEDFATYYCQQHYSIPLTFGQGTKLEIKR | –
0.07 | ~1 | – | – | – | LAG3-5 (antibody, human IgG4 S228P, kappa, V domains shown, Humanized derivative of murine 496G6, human IgG4 (Pro) format, kappa; also called anti-LAG3 antibody LAG3-5) VH: QVTLKESGPTLVKPTQTLTLTCSFSGFSLSTSDMGVGWIRQPPGKALEWLAHIWWDDVKRYNPALKSRLTITKDTSKNQVVLTMTNMDPVDTATYFCARIVDYGVSYYFDYWGQGTTVTVSS VL: DIQMTQSPSFLSASVGDRVSITCKASQDVSTAVAWYQQKPGKAPKLLIYSASYRYTGVPDRFSGSGSGTDFTLTISSLQPEDFAVYYCQQHYSIPLTFGQGTKLEIKR | –
0.12 | ~0.8 | – | – | – | LAG3-3 (antibody, human IgG4 S228P, kappa, V domains shown, Humanized derivative of murine 496G6, human IgG4 (Pro) format, kappa; also called anti-LAG3 antibody LAG3-3) VH: QVTLVESGGGVVQPGRSLSLSCAFSGFSLSTSDMGVGWVRQPPGKGLEWVAHIWWDDVKRYNPALKSRFTISRDNSKNTLYLQMNSLRAEDTATYYCARIEDYGVSYYFDYWGQGTTVTVSS VL: DIQMTQSPSFLSASVGDRVTITCKASQDVSTAVAWYQQKPGKAPKLLIYSASYRYTGVPDRFSGSGSGTDFTLTISSLQPEDFATYYCQQHYSIPLTFGAGTKLEIKR | –
0.125 | ~1 | – | – | – | LAG3-1 (antibody, human IgG4 S228P, kappa, V domains shown, Humanized derivative of murine 496G6, human IgG4 (Pro) format, kappa; also called representative anti-LAG3 antibody of the invention) VH: QVTLVESGGGVVQPGRSLRLSCAFSGFSLSTSDMGVGWIRQAPGKGLEWVAHIWWDDVKRYNPALKSRFTISRDNSKNTLYLQMNSLRAEDTAVYFCARIEDYGVSYYFDYWGQGTTVTVSS VL: DIQMTQSPSFLSASVGDRVSITCKASQDVSTAVAWYQQKPGKAPKLLIYSASYRYTGVPDRFSGSGSGTDFTLTISSLQPEDFATYYCQQHYSIPLTFGQGTKLEIKR | –
– | – | – | – | – | 496G6 (antibody, V domains shown, Murine monoclonal antibody from a hybridoma; also called murine progenitor antibody 496G6; monoclonal antibody produced by 496G6) VH: QVTLKESGPGILQPSQTLSLTCSFSGFSLSTSDMGVGWIRQPSGKGLEWLAHIWWDDVKRYNPALKSRLTISKDTSSSQVFLMIASVDTADTATYFCARIEDYGVSYYFDYWGQGTTLTVSS VL: DIVMTQSHKFMSTSVGDRVSFTCKASQDVNTAVAWYQQKPGQSPKLLIYSASYRYTGVPDRFTGSGSGTDFTFTISSVQAEDLALYYCQQHYSIPLTFGAGTKLELK | binding result (human LAG3 (ECD)): binds
– | – | 2.12 | 16.6 | 2.09 | PD1-1 (antibody, human IgG4 S228P, kappa, V domains shown, Humanized derivative of murine 77E11; the HC is IgG4 (Pro), kappa light chain; also called anti-PD1 antibody PD1-1) VH: EVMLVESGGGLVQPGGSLRLSCTASGFTFSASAMSWVRQAPGKGLEWVAYISGGGGDTYYSSSVKGRFTISRDNAKNSLYLQMNSLRAEDTAVYYCARHSNVNYYAMDYWGQGTLVTVSS VL: EIVLTQSPATLSLSPGERATMSCRASENIDTSGISFMNWYQQKPGQAPKLLIYVASNQGSGIPARFSGSGSGTDFTLTISRLEPEDFAVYYCQQSKEVPWTFGQGTKLEIKR | IC50 (read off the curve) [4]: ~0.8 nM; IC50 (read off the curve) [5]: ~1 nM
– | – | 1.68 | 6 | 1.95 | PD1-3 (antibody, human IgG4 S228P, kappa, V domains shown, Humanized derivative of murine 77E11; the HC is IgG4 (Pro), kappa light chain; also called anti-PD1-3; representative anti-PD1 antibody of the invention) VH: EVMLVESGGGLVQPGGSLRLSCTASGFTFSKSAMSWVRQAPGKGLEWVAYISGGGGDTYYSSSVKGRFTISRDNAKNSLYLQMNSLRAEDTAVYYCARHSNVNYYAMDYWGQGTLVTVSS VL: EIVLTQSPATLSLSPGERATMSCRASENIDVSGISFMNWYQQKPGQAPKLLIYVASNQGSGIPARFSGSGSGTDFTLTISRLEPEDFAVYYCQQSKEVPWTFGQGTKLEIKR | IC50 (read off the curve) [7]: ~0.8 nM; IC50 (read off the curve) [8]: ~1 nM
– | – | 2.97 | 61.8 | 3.64 | PD1-2 (antibody, human IgG4 S228P, kappa, V domains shown, Humanized derivative of murine 77E11; the HC is IgG4 (Pro), kappa light chain; also called anti-PD1 antibody PD1-2) VH: EVMLVESGGGLVQPGGSLRLSCTASGFTFSASAMSWVRQAPGKGLEWVAYISGGGGDTYYSSSVKGRFTISRDNAKNSLYLQMNSLRAEDTAVYYCARHSNPNYYAMDYWGQGTLVTVSS VL: EIVLTQSPATLSLSPGERATMSCRASENIDTSGISFMNWYQQKPGQAPKLLIYVASNQGSGIPARFSGSGSGTDFTLTISRLEPEDFAVYYCQQSKEVPWTFGQGTKLEIKR | IC50 (read off the curve) [4]: ~1 nM; IC50 (read off the curve) [5]: ~1 nM
